{
  "source": "patent US20180362629A1",
  "about": "(ZOETIS BELGIUM S A, published 2018)",
  "key": {"[1]": {"target": "human β NGF (R&D Systems catalog #256-GF/CF) (human) (UniProt P01138)", "sequence (P01138 122-241 limits assumed)": "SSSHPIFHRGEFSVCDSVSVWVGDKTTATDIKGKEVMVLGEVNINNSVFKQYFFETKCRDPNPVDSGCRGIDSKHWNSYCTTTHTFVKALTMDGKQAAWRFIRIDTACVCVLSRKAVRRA", "assay": "cell-based or functional assay"}, "recombinant canine β NGF [2]": {"target": "T1, recombinant canine β NGF (canine, UniProt Q29074 110-229 (pig entry))", "T1 chain": "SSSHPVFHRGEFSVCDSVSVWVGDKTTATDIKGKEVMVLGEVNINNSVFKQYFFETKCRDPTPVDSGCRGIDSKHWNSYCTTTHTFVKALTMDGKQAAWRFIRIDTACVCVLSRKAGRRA", "assay": "cell-based or functional assay"}, "biotinylated human β NGF [3]": {"target": "T2, biotinylated human β NGF (human, UniProt P01138 122-241, biotinylated)", "T2 construct": "also called Biotinylated Human NGF; human NGF", "T2 sequence (P01138 122-241 limits assumed)": "as the sequence (P01138 122-241 limits assumed) above", "assay": "capture ELISA; supernatant 5-fold", "protocol": "(§1) The plates were washed three times with wash buffer. The plates were blocked with 200 μl of 2% milk and incubated for 1 hour at room temperature. The plates were washed as above. […] The positive control was crude sera (diluted 1:500 with PBS) isolated from a β NGF immunized mouse and the negative control was hybridoma supernatant derived from a mouse immunized with an antigen other than NGF. The plates were washed and then 50 μl of biotinylated human or rat β NGF at 50 ng/ml was added and incubated for 1 hour at room temperature. The plates were washed. […] The plates were incubated for 30 minutes at room temperature. The plates were washed and then TMB substrate (Invitrogen, catalog #00-2023) was added. The reaction was stopped using 2N H₂SO₄ (VWR, catalog # BDH3500-1). The absorbance at 450 nm was read on a Spectromax 2E plate reader (Molecular Devices); these absorbance readings are shown in Tables 1 and 2. The numerical value indicates binding of mouse anti-NGF antibodies to biotinylated human or rat β NGF."}, "biotinylated rat β NGF [4]": {"target": "T3, biotinylated rat β NGF (rat, UniProt P25427 122-241, limits assumed, biotinylated)", "T3 construct": "also called Biotinylated Rat NGF; rat NGF", "T3 sequence (P25427 122-241 limits assumed)": "as the sequence (P01138 122-241 limits assumed) above, with S3T, I6V, R9M, M37T, D60A, D65E, M92T, G94D, V117A, A120G counted along it", "assay": "capture ELISA; supernatant 5-fold", "protocol": "as §1"}, "biotinylated human β NGF [5]": {"target": "T2, biotinylated human β NGF", "assay": "capture ELISA; supernatant 25-fold", "protocol": "as §1"}, "biotinylated rat β NGF [6]": {"target": "T3, biotinylated rat β NGF", "assay": "capture ELISA; supernatant 25-fold", "protocol": "as §1"}, "biotinylated human β NGF [7]": {"target": "T2, biotinylated human β NGF", "assay": "capture ELISA; supernatant 125-fold", "protocol": "as §1"}, "biotinylated rat β NGF [8]": {"target": "T3, biotinylated rat β NGF", "assay": "capture ELISA; supernatant 125-fold", "protocol": "as §1"}, "biotinylated human β NGF [9]": {"target": "T2, biotinylated human β NGF", "assay": "capture ELISA; supernatant 625-fold", "protocol": "as §1"}, "biotinylated rat β NGF [10]": {"target": "T3, biotinylated rat β NGF", "assay": "capture ELISA; supernatant 625-fold", "protocol": "as §1"}, "recombinant canine β NGF [11]": {"target": "T4, recombinant canine β NGF (canine, UniProt Q29074 110-229 (pig entry))", "T4 chain": "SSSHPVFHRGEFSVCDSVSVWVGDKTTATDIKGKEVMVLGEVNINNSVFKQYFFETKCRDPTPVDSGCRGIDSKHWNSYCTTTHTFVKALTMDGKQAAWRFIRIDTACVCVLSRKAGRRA", "assay": "cell-based or functional assay"}, "recombinant canine β NGF [12]": {"target": "T4, recombinant canine β NGF", "assay": "cell-based or functional assay"}, "recombinant canine β NGF [13]": {"target": "T4, recombinant canine β NGF", "assay": "direct ELISA, canine NGF coated at 1 µg/ml, mAb at 2 µg/ml", "protocol": "(§2) To determine if purified mouse anti-NGF mAbs bind to canine β NGF, ELISA plates were coated with 50 μl/well of canine NGF (Abbott Laboratories) at 1 μg/ml in PBS and incubated over night at 4° C. The plates were washed three times with PBS+Tween buffer. The plates were blocked with 200 μl/well of 2% milk in PBS for 1 hour at room temperature. The plates were washed three times as above. Purified antibodies were diluted to 0.4, 2, or 10 μg/ml. 50 μl of each concentration of purified antibody was added to the plates. The plates were incubated for 1 hour at room temperature. The plates were washed. 50 μl of a 5000-fold diluted goat anti-mouse IgG Fc-HRP (Thermo, catalog #31439) was added. The plates were incubated for 1 hour at room temperature. 50 μl of TMB (Invitrogen, catalog #00-2023) was added and the reaction was stopped using 2N H₂SO₄ (VWR, catalog # BDH3500-1). The absorbance at 450 nm was read on a Spectromax 2E plate reader (Molecular Devices). The results are shown in Table 9, and the numerical value indicates binding of mouse anti-NGF antibodies to canine β NGF."}, "recombinant canine β NGF [14]": {"target": "T4, recombinant canine β NGF", "assay": "direct ELISA, canine NGF coated at 1 µg/ml, mAb at 10 µg/ml", "protocol": "as §2"}, "recombinant canine β NGF [15]": {"target": "T4, recombinant canine β NGF", "assay": "direct ELISA, canine NGF coated at 1 µg/ml, mAb at 0.4 µg/ml", "protocol": "as §2"}, "recombinant canine β NGF [16]": {"target": "T4, recombinant canine β NGF", "assay": "SPR (Biacore), mAb captured on goat anti-mouse IgG Fc, canine NGF injected; Expt 1", "protocol": "(§3) A biomolecular protein interaction analysis was used to evaluate the binding kinetics of the interaction between the purified anti-NGF hybridoma antibodies and recombinant canine β NGF. The antibodies were captured using a goat anti-mouse IgG FC (10000 RU) surface which was directly immobilized to a CM5 chip using an amine coupling procedure according to the manufacturer's instructions (Biacore). A sample size of 5 μl of antibody at a concentration of 1 μg/ml was captured at 10 μl minute. Recombinant canine NGF was used as the antigen. Canine NGF was injected at 75 μl/min (concentration range: 5-0.039 nM) for mouse antibodies. The association rate was monitored for 3.3 minutes and the dissociation rate was monitored for 10 minutes. Aliquots of canine NGF were also simultaneously injected over a reference reaction CM surface to record any nonspecific binding background. The instrument sensitivity for on-rate is I×IO⁷, such that any on-rate that is faster than I×IO⁷ may not be accurately measured; the instrument sensitivity for off-rate is […], such that any off-rate that is slower than 1×10⁻⁶ may not be accurately measured. Therefore, an on-rate that is faster than 1×10⁷ is recorded as >1×10⁷ and an off-rate that is slower than 1×10⁻⁶ is recorded as <1×10⁻⁶."}, "recombinant canine β NGF [17]": {"target": "T4, recombinant canine β NGF", "assay": "SPR (Biacore), mAb captured on goat anti-mouse IgG Fc, canine NGF injected; Expt 2", "protocol": "as §3"}, "recombinant canine β NGF [18]": {"target": "T4, recombinant canine β NGF", "assay": "SPR (Biacore), mAb captured on goat anti-mouse IgG Fc, canine NGF injected; Average", "protocol": "as §3"}},
  "note": "Values joined by “and” are separate entries in the source; they are usually repeats but may differ in a detail not shown here. Equal entries are not always repeated. Where two headings read alike, the source gives them in different places.",
  "data": [
    {"molecule": "Unrelated hybridoma (antibody)", "values": [
      {"measurement": "PathHunter % of max signal, supernatant 1000-fold", "setting": "[1]", "result": "136% and 144%"},
      {"measurement": "PathHunter % of max signal, supernatant 5000-fold", "setting": "[1]", "result": "126% and 132%"},
      {"measurement": "PathHunter % of max signal, supernatant 10000-fold", "setting": "[1]", "result": "138% and 137%"}
    ]},
    {"molecule": "PR-1254980 (antibody, mouse IgG1, V domains shown, also called 23F1; ML129-23F1.4G3) VH: EVQLQQSGAELVKPGASVKLSCTASGFNIKDTYIYWVKQRPEQGLEWIGRIDPANGNTIYASKFQGKATITADTSSNTAYMQLSSLTSGDTAVYYCAGYGYYAYWGQGTTLTVSS VL: DVVLTQTPLSLPVNIGDQASISCKSTKSLLNGDGFTYLDWYLQKPGQSPQLLIYLVSNRFSGVPDRFSGSGSGTDFTLKISRVEAEDLGVYYCFESNYLFTFGSGTKLEMKR", "values": [
      {"measurement": "PathHunter IC50 (441 pM canine NGF)", "setting": "recombinant canine β NGF [2]", "result": "< 1", "unit": "nM"},
      {"measurement": "SureFire cellular pERK IC50 (128 pM canine NGF)", "setting": "recombinant canine β NGF [2]", "result": "< 1", "unit": "nM"},
      {"measurement": "absorbance at 450 nm", "setting": "biotinylated human β NGF [3]", "result": 1.14},
      {"measurement": "absorbance at 450 nm", "setting": "biotinylated rat β NGF [4]", "result": 0.764},
      {"measurement": "absorbance at 450 nm", "setting": "biotinylated human β NGF [5]", "result": 1.17},
      {"measurement": "absorbance at 450 nm", "setting": "biotinylated rat β NGF [6]", "result": 0.767},
      {"measurement": "absorbance at 450 nm", "setting": "biotinylated human β NGF [7]", "result": 0.979},
      {"measurement": "absorbance at 450 nm", "setting": "biotinylated rat β NGF [8]", "result": 0.737},
      {"measurement": "absorbance at 450 nm", "setting": "biotinylated human β NGF [9]", "result": 0.696},
      {"measurement": "absorbance at 450 nm", "setting": "biotinylated rat β NGF [10]", "result": 0.528}
    ]},
    {"molecule": "PR-1254977 (antibody, mouse IgG1, V domains shown, also called 21D4; ML129-21D4.4A11) VH: EVQLQQSGAELVKPGASVKLSCTASGFNIKDTYIYWVKQRPEQGLEWIGRIDPANGNTIYASKFQGKASITADTSSNTAYMQLSSLTSGDTAVYYCAGYGYYAYWGQGTTLTVSS VL: DVVLTQTPLSLPVNIGDQASISCKSTKSLLNGDGFTYLDWYLQKPGQSPQLLIYLVSNRFSGVPDRFSGSGSGTDFTLKISRVEAEDLGVYYCFESNYLFTFGSGTKLEMKR", "values": [
      {"measurement": "PathHunter IC50 (441 pM canine NGF)", "setting": "recombinant canine β NGF [2]", "result": "< 1", "unit": "nM"},
      {"measurement": "SureFire cellular pERK IC50 (128 pM canine NGF)", "setting": "recombinant canine β NGF [2]", "result": "< 1", "unit": "nM"},
      {"measurement": "absorbance at 450 nm", "setting": "biotinylated human β NGF [3]", "result": 1.15},
      {"measurement": "absorbance at 450 nm", "setting": "biotinylated rat β NGF [4]", "result": 0.787},
      {"measurement": "absorbance at 450 nm", "setting": "biotinylated human β NGF [5]", "result": 1.04},
      {"measurement": "absorbance at 450 nm", "setting": "biotinylated rat β NGF [6]", "result": 0.76},
      {"measurement": "absorbance at 450 nm", "setting": "biotinylated human β NGF [7]", "result": 0.899},
      {"measurement": "absorbance at 450 nm", "setting": "biotinylated rat β NGF [8]", "result": 0.671},
      {"measurement": "absorbance at 450 nm", "setting": "biotinylated human β NGF [9]", "result": 0.543},
      {"measurement": "absorbance at 450 nm", "setting": "biotinylated rat β NGF [10]", "result": 0.453}
    ]},
    {"molecule": "PR-1254981 (antibody, mouse IgG1, V domains shown, also called 14A9; ML130-14A9.5B12) VH: EVQLVESGGGAVKPGGSLTLSCAASGFTFSNHYMYWVRQTPEKRLEWVASISDGGAYTFYPDTVKGRFTISRDNVNNNLYLQMRHLKSEDTAMYYCTREESANNGFAFWGQGTLVTVSA VL: DVLMTQTPLSLPVSLGDQASISCRSSQSILHSNGNTYLEWYLQKPGQSPNLLIYRVSNRFSGVPDRFSGSGSGTDFTLKISRVEAEDLGVYYCFQGAHVPFTFGSGTKLEIKR", "values": [
      {"measurement": "IC50, canine NGF-induced TF-1 cell proliferation (70 pM canine NGF)", "setting": "recombinant canine β NGF [11]", "result": 46, "unit": "pM"},
      {"measurement": "PathHunter IC50 (441 pM canine NGF)", "setting": "recombinant canine β NGF [12]", "result": 0.279, "unit": "nM"},
      {"measurement": "SureFire pERK IC50 (128 pM canine β NGF)", "setting": "recombinant canine β NGF [12]", "result": 21.4, "unit": "pM"},
      {"measurement": "absorbance at 450 nm", "setting": "recombinant canine β NGF [13]", "result": 0.458, "unit": "A450"},
      {"measurement": "absorbance at 450 nm", "setting": "recombinant canine β NGF [14]", "result": 0.61, "unit": "A450"},
      {"measurement": "absorbance at 450 nm", "setting": "recombinant canine β NGF [15]", "result": 0.229, "unit": "A450"},
      {"measurement": "Kd", "setting": "recombinant canine β NGF [16]", "result": 0.0147, "unit": "nM"},
      {"measurement": "koff", "setting": "recombinant canine β NGF [16]", "result": 0.000127, "unit": "s⁻¹"},
      {"measurement": "kon", "setting": "recombinant canine β NGF [16]", "result": "8.67e+06", "unit": "M⁻¹ s⁻¹"},
      {"measurement": "Kd", "setting": "recombinant canine β NGF [17]", "result": 0.0187, "unit": "nM"},
      {"measurement": "koff", "setting": "recombinant canine β NGF [17]", "result": 0.00014, "unit": "s⁻¹"},
      {"measurement": "kon", "setting": "recombinant canine β NGF [17]", "result": "7.48e+06", "unit": "M⁻¹ s⁻¹"},
      {"measurement": "Kd", "setting": "recombinant canine β NGF [18]", "result": 0.0167, "unit": "nM"},
      {"measurement": "koff", "setting": "recombinant canine β NGF [18]", "result": 0.000134, "unit": "s⁻¹"},
      {"measurement": "kon", "setting": "recombinant canine β NGF [18]", "result": "8.08e+06", "unit": "M⁻¹ s⁻¹"}
    ]}
  ]
}
